From patent US6555107

Target: human CXCR4 (human) (UniProt P61073)
Test: cell-based or functional assay

Sequence of UniProt P61073 (P61073 whole entry): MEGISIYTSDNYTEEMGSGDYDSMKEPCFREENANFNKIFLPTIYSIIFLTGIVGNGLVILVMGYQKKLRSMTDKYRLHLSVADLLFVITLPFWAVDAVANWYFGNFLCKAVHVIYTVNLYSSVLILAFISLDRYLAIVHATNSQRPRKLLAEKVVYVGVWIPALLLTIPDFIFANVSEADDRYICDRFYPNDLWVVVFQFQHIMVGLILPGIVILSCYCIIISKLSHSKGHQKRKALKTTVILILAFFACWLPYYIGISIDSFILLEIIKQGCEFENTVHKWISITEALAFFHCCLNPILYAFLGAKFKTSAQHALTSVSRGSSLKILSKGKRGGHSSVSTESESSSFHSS

In the case of “FIV envelope protein (product of the env gene of FIV clone 34TF10, Petaluma strain) (from UniProt P16090 1-856)”, the infectivity of replication-competent 34TF10 on CRFK.CXCR4 against CRFK cells (focal infectivity assay) is reported as 8 fold and the titer of FIV Env-enveloped CTRZLb vector on CRFK.CXCR4 cells (transducing units/ml) is reported as 360.
